Measurements reported in patent US20060105442, “Promoters and proteins from Clostridium thermocellum and uses thereof” (published 2006).

Molecular target: T1, rGlyR3 (CelR3) (Clostridium thermocellum)
T1 chain: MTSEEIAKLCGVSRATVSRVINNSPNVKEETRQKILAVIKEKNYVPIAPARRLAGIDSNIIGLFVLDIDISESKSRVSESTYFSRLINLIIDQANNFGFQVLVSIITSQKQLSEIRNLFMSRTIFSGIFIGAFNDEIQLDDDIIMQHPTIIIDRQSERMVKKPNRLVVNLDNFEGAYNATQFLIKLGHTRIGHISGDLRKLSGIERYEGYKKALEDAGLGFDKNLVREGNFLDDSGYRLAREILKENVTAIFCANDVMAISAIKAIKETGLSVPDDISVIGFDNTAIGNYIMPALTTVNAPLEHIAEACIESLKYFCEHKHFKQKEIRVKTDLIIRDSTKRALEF
Assay: EMSA; dose dependent; inhibited by laminaribiose

B1: 18 bp GlyR3 binding site (dsDNA)
DNA 1: AATGAACGCGCGTACATT
DNA 2: AATGTACGCGCGTTCATT
  binding result: binds
